In PMC3656769:

Tests used:
Settings in all cases: glycan lost; control: wild type
[1] = cell surface biotinylation, Western, HEK 293
[2] = nonreducing SDS-PAGE Western, Hep3B stable cells
[3] = confocal immunofluorescence, nonpermeabilized HEK 293
[4] = surface biotinylation, FLAG IP, nonreducing Avidin-HRP blot, Hep3B
[5] = Western after 12 h holo-Tf, Hep3B transient and stable

Protein | localisation_or_trafficking [1] | oligomerisation [2] | localisation_or_trafficking [3] | localisation_or_trafficking [4] | other: holo-Tf-induced stabilisation (protein level), fold_change [5]
Transferrin receptor 2 (hTfR2): 3-Mut (protein) parent chain: MERLWGLFQRAQQLSPRSSQTVYQRVEGPRKGHLEEEEEDGEEGAETLAHFCPMELRGPEPLGSRPRQPNLIPWAAAGRRAAPYLVLTALLIFTGAFLLGYVAFRGSCQACGDSVLVVSEDVNYEPDLDFHQGRLYWSDLQAMFLQFLGEGRLEDTIRQTSLRERVAGSAGMAALTQDIRAALSRQKLDHVWTDTHYVGLQFPDPAHPNTLHWVDEAGKVGEQLPLEDPDVYCPYSAIGNVTGELVYAHYGRPEDLQDLRARGVDPVGRLLLVRVGVISFAQKVTNAQDFGAQGVLIYPEPADFSQDPPKPSLSSQQAVYGHVHLGTGDPYTPGFPSFNQTQFPPVASSGLPSIPAQPISADIASRLLRKLKGPVAPQEWQGSLLGSPYHLGPGPRLRLVVNNHRTSTPINNIFGCIEGRSEPDHYVVIGAQRDAWGPGAAKSAVGTAILLELVRTFSSMVSNGFRPRRSLLFISWDGGDFGSVGSTEWLEGYLSVLHLKAVVYVSLDNAVLGDDKFHAKTSPLLTSLIESVLKQVDSPNHSGQTLYEQVVFTNPSWDAEVIRPLPMDSSAYSFTAFVGVPAVEFSFMEDDQAYPFLHTKEDTYENLHKVLQGRLPAVAQAVAQLAGQLLIRLSHDRLLPLDFGRYGDVVLRHIGNLNEFSGDLKARGLTLQWVYSARGDYIRAAEKLRQEIYSSEERDERLTRMYNVRIMRVEFYFLSQYVSPADSPFRHIFMGRGDHTLGALLDHLRLLRSNSSGTPGATSSTGFQESRFRRQLALLTWTLQGAANALSGDVWNIDNNF | no change | decreases | no change | no change | –
Transferrin receptor 2 (hTfR2): N339A (protein) parent chain: MERLWGLFQRAQQLSPRSSQTVYQRVEGPRKGHLEEEEEDGEEGAETLAHFCPMELRGPEPLGSRPRQPNLIPWAAAGRRAAPYLVLTALLIFTGAFLLGYVAFRGSCQACGDSVLVVSEDVNYEPDLDFHQGRLYWSDLQAMFLQFLGEGRLEDTIRQTSLRERVAGSAGMAALTQDIRAALSRQKLDHVWTDTHYVGLQFPDPAHPNTLHWVDEAGKVGEQLPLEDPDVYCPYSAIGNVTGELVYAHYGRPEDLQDLRARGVDPVGRLLLVRVGVISFAQKVTNAQDFGAQGVLIYPEPADFSQDPPKPSLSSQQAVYGHVHLGTGDPYTPGFPSFNQTQFPPVASSGLPSIPAQPISADIASRLLRKLKGPVAPQEWQGSLLGSPYHLGPGPRLRLVVNNHRTSTPINNIFGCIEGRSEPDHYVVIGAQRDAWGPGAAKSAVGTAILLELVRTFSSMVSNGFRPRRSLLFISWDGGDFGSVGSTEWLEGYLSVLHLKAVVYVSLDNAVLGDDKFHAKTSPLLTSLIESVLKQVDSPNHSGQTLYEQVVFTNPSWDAEVIRPLPMDSSAYSFTAFVGVPAVEFSFMEDDQAYPFLHTKEDTYENLHKVLQGRLPAVAQAVAQLAGQLLIRLSHDRLLPLDFGRYGDVVLRHIGNLNEFSGDLKARGLTLQWVYSARGDYIRAAEKLRQEIYSSEERDERLTRMYNVRIMRVEFYFLSQYVSPADSPFRHIFMGRGDHTLGALLDHLRLLRSNSSGTPGATSSTGFQESRFRRQLALLTWTLQGAANALSGDVWNIDNNF | – | – | – | – | no change
Transferrin receptor 2 (hTfR2): N754A (protein) parent chain: MERLWGLFQRAQQLSPRSSQTVYQRVEGPRKGHLEEEEEDGEEGAETLAHFCPMELRGPEPLGSRPRQPNLIPWAAAGRRAAPYLVLTALLIFTGAFLLGYVAFRGSCQACGDSVLVVSEDVNYEPDLDFHQGRLYWSDLQAMFLQFLGEGRLEDTIRQTSLRERVAGSAGMAALTQDIRAALSRQKLDHVWTDTHYVGLQFPDPAHPNTLHWVDEAGKVGEQLPLEDPDVYCPYSAIGNVTGELVYAHYGRPEDLQDLRARGVDPVGRLLLVRVGVISFAQKVTNAQDFGAQGVLIYPEPADFSQDPPKPSLSSQQAVYGHVHLGTGDPYTPGFPSFNQTQFPPVASSGLPSIPAQPISADIASRLLRKLKGPVAPQEWQGSLLGSPYHLGPGPRLRLVVNNHRTSTPINNIFGCIEGRSEPDHYVVIGAQRDAWGPGAAKSAVGTAILLELVRTFSSMVSNGFRPRRSLLFISWDGGDFGSVGSTEWLEGYLSVLHLKAVVYVSLDNAVLGDDKFHAKTSPLLTSLIESVLKQVDSPNHSGQTLYEQVVFTNPSWDAEVIRPLPMDSSAYSFTAFVGVPAVEFSFMEDDQAYPFLHTKEDTYENLHKVLQGRLPAVAQAVAQLAGQLLIRLSHDRLLPLDFGRYGDVVLRHIGNLNEFSGDLKARGLTLQWVYSARGDYIRAAEKLRQEIYSSEERDERLTRMYNVRIMRVEFYFLSQYVSPADSPFRHIFMGRGDHTLGALLDHLRLLRSNSSGTPGATSSTGFQESRFRRQLALLTWTLQGAANALSGDVWNIDNNF | – | – | – | – | no change
Transferrin receptor 2 (hTfR2): N240A (protein) parent chain: MERLWGLFQRAQQLSPRSSQTVYQRVEGPRKGHLEEEEEDGEEGAETLAHFCPMELRGPEPLGSRPRQPNLIPWAAAGRRAAPYLVLTALLIFTGAFLLGYVAFRGSCQACGDSVLVVSEDVNYEPDLDFHQGRLYWSDLQAMFLQFLGEGRLEDTIRQTSLRERVAGSAGMAALTQDIRAALSRQKLDHVWTDTHYVGLQFPDPAHPNTLHWVDEAGKVGEQLPLEDPDVYCPYSAIGNVTGELVYAHYGRPEDLQDLRARGVDPVGRLLLVRVGVISFAQKVTNAQDFGAQGVLIYPEPADFSQDPPKPSLSSQQAVYGHVHLGTGDPYTPGFPSFNQTQFPPVASSGLPSIPAQPISADIASRLLRKLKGPVAPQEWQGSLLGSPYHLGPGPRLRLVVNNHRTSTPINNIFGCIEGRSEPDHYVVIGAQRDAWGPGAAKSAVGTAILLELVRTFSSMVSNGFRPRRSLLFISWDGGDFGSVGSTEWLEGYLSVLHLKAVVYVSLDNAVLGDDKFHAKTSPLLTSLIESVLKQVDSPNHSGQTLYEQVVFTNPSWDAEVIRPLPMDSSAYSFTAFVGVPAVEFSFMEDDQAYPFLHTKEDTYENLHKVLQGRLPAVAQAVAQLAGQLLIRLSHDRLLPLDFGRYGDVVLRHIGNLNEFSGDLKARGLTLQWVYSARGDYIRAAEKLRQEIYSSEERDERLTRMYNVRIMRVEFYFLSQYVSPADSPFRHIFMGRGDHTLGALLDHLRLLRSNSSGTPGATSSTGFQESRFRRQLALLTWTLQGAANALSGDVWNIDNNF | – | – | – | – | no change
